Test results reported in the Human Domainome abundance scans (Beltran et al. 2025).

B1: RNA-binding E3 ubiquitin-protein ligase MEX3C, residues 325 to 391; numbered along this chain, Q5U5Q3 (parent)
chain: GQTTVQVRVPYRVVGLVVGPKGATIKRIQQQTHTYIVTPSRDKEPVFEVTGMPENVDRAREEIEMHI

Variants of: B1
Assay: abundance fitness (aPCA) (normalised: wild type 0, dead -1); higher = more abundant; growth selection in yeast, the domain comes from the species named
Conditions: Homo sapiens

Abundance fitness: each site, then its substitutions
V49: L -0.62, I 0.129, M -0.793, T -0.626, S -0.843, A -0.682, Q -0.901, F -0.842, D -0.71, Y -0.804, W -0.99, G -0.469, C -0.668, K -0.702, R -0.788, P -1.34, N -0.675
M65: Q 0.225, W -0.184, Y 0.366, C -0.285, I -0.099, T 0.004, N 0.033, D -0.223, F -0.264, G -0.049, A 0.142, R 0.216, V -0.449, H 0.125, L -0.114, P -0.699, S 0.12, K 0.224
P53: M -0.433, C -0.514, V -0.734, K -0.012, Q -0.173, W -0.871, F -0.488, R -0.167, N -0.295, D -0.597, S -0.279, A -0.141, G -0.541, T -0.375, I -0.689
E62: D -0.494, H -0.602, V -0.114, L 0.115, R -0.299, C 0.054, T -0.52, K -0.126, S -0.373, M 0.132, N -0.639, A 0.025, G -0.679, P -1.01, Q 0.034, Y -0.255, I -0.318
G51: E -0.599, Y -0.918, P -0.78, K -0.448, D -0.656, C -1.05, R -0.726, H -0.789, F -0.701, W -0.951, Q -0.776, T -1.05, L -0.794, S -0.918
R58: K 0.067, D -0.73, V -0.616, N -0.434, I -0.954, W -0.555, T -1.1, E -0.572, S -0.614, C -0.36, P -1.09, G -0.675, F -0.519, M -0.409, Q -0.304
E48: D -0.534, M -0.04, H -0.155, V -0.292, S -0.245, I -0.007, P -0.771, A -0.356, Q -0.204, L -0.029, C -0.357, N -0.733, F -0.068, G -0.748, W -0.124
A59: H -0.859, W -1.08, D -0.915, K -0.671, M -0.313, Q -0.802, T -0.929, R -0.762, E -0.967, I -1.08, L -0.886, V -0.719, S -0.829, C -0.374, P -0.854
I63: L -0.412, N -0.094, Q -0.863, C -0.734, G -0.899, M -0.772, V -0.512, A -0.845, P -0.461, W -0.768, S -0.894, H -0.772, Y -0.748
E54: T -0.267, I -0.377, A -0.079, L -0.325, W -0.174, F -0.815, V -0.485, R -0.248, P -0.235, Q -0.321, H -0.332, K -0.519, Y -0.382, G -0.179, M -0.575, C -0.482, N -0.419, S -0.213, D -0.119
N55: K -0.647, D 0.033, E -0.401, F -0.711, R -0.789, Y -0.811, W -1.17, Q 0.138, L -0.885, A -0.146, M -0.541, V -0.8, C -0.544, I -0.646, G -0.281, S -0.426, T -0.627
R60: C -0.025, G -0.575, E -0.739, F -0.526, Q -0.639, I -0.026, P -0.651, A -0.694, V -0.006, D -1.13, H -0.401, T -0.557, W -0.53, M -0.296, K -0.024, L -0.098
F47: R -0.706, M -0.808, E -0.658, G -0.661, S -0.835, A -0.889, T -0.511, C -0.411, I -0.853, N -0.442, Y -0.677, P -0.974, D -1.01, Q -0.648, W -0.412, V -0.792
V56: I -0.21, K -0.402, L -0.574, H -0.712, S -0.496, E -0.927, N -1.11, Q -0.455, C 0.009, R -0.799, A -0.585, M -0.455, D -0.75, Y -0.62, W -0.809, T -0.286
T50: P -0.916, N -0.792, H -0.315, K -0.52, S -0.254, I -0.494, Y -0.598, E -0.835, M -0.378, G -0.651, F -0.618, Q -0.624, L -0.547, V -0.745, W -0.545, C -0.313
V46: Y -0.146, S -0.774, T -0.526, W -0.662, Q -0.621, R -0.607
D57: C -0.072, K 0.22, S -0.229, H -0.472, Q -0.108, G -0.198, W -0.245, M 0.132, P -0.673, Y -0.303, N 0.069, A 0.151, F -0.176, L -0.057, E 0.137, R 0.018, I -0.11, T 0.013, V -0.143
E61: G -0.343, I -0.472, Y -0.177, F -0.342, K 0.069, A 0.014, V -0.17, M -0.161, P -0.85, Q -0.023, T -0.037, S -0.089, D -0.043, L -0.266, W -0.353, N -0.36, H 0.022
I67: F -0.437, A 0.163, G 0.026, E -0.235, C -0.104
E64: M -0.006, G -0.606, T -0.779, H -0.222, C -0.309, D -0.015, Y -0.271, F -0.029, L 0.056, S -0.281, W -0.179, K -0.193, V -0.66, P -0.435
H66: R 0.178, D -0.625, G -0.465, Y 0.11, P -0.88, W -0.079, I 0.404, V 0.286, Q 0.166, C 0.089, L 0.282, T 0.198, E -0.143, F 0.135, S -0.336, K -0.039
M52: Y -0.19, H -0.515, R -0.167, W -0.369, C -0.194, D -0.13, L -0.04, Q -0.021, F -0.206, G -0.596, K -0.075, T 0.185, A -0.141, S 0.006, I -0.183, V -0.482, E -0.2, N -0.99
